# Test results published in patent US8598315B2, “Protein transduction domains derived from secretory leukocyte protease inhibitor” (Research Foundation of City University of New York, priority 2007, dated 2013).
# Ends that are not written are not given here.
# B1: SLPI: recombinant human secretory leukocyte protease inhibitor (R&D Systems), 107 amino acid polypeptide, SEQ ID NO: 1 (protein, listed as Homo sapiens)
# chain: SGKSFKAGVCPPKKSAQCLRYKKPECQSDWQCPGKKRCCPDTCGIKCLDPVDTPNPTRRKPGKCPVTYGQCLMLNPPNFCEMDGQCKRDLKCCMGMCGKSCVSPVKA
# B2: fSLPI: SLPI labeled with fluorescein using a Fluorescein-EX protein labeling kit (protein, UniProt P03973 26-132, looked up)
# Antileukoproteinase: B1 chain
# modifications: fluorescein label
# notes: SLPI labeled with fluorescein using a Fluorescein-EX protein labeling kit
# Tests used:
# [1] = tested on: retinal ganglion cell layer of the retina; assay: Internalization in vivo after injection into the vitreous chamber of the eye; details: adult rats, 5 μl of 1 μg/μl into vitreous chamber, 4 hours
# Method: To analyze the transduction characteristics of SLPI in vivo, fSLPI was injected into the eyes of adult rats. Long-Evans rats (200-250 g) were anesthetized with 2.5% isofluorane and 5 μl of fSLPI (1 μg/μl) or unconjugated fluorescein was injected into the vitreous chamber of the right eye using a glass micropipette (1 μm diameter) attached to a microsyringe pump. 4 hours later, the animals were sacrificed by transcardial perfusion with 4% paraformaldehyde. Following removal of the cornea and lens, the eyes were dissected out and post-fixed in 4% paraformaldehyde for 48 hours. Tissues were then cryoprotected in 30% sucrose in phosphate-buffered saline (PBS) for an additional 48 hours. Tissues were sectioned sagitally at 30 μm on a cryostat and thaw-mounted onto gelatin-coated slides.
# [2] = tested on: retinal ganglion cell layer of the retina; assay: SLPI-derived PTD injected into adult eye (Example 8, expected result); details: adult rats, injected into the eyes, 4 hours
# Method: To analyze the transduction characteristics of SLPI11-25 in vivo, fSLPI11-25 is injected into the eyes of adult rats.
# [3] = Blood brain barrier crossing after intraperitoneal injection; format: in vivo, 129SI/SV1MJ mice; details: mice, intraperitoneal 100 μg
# Method: To assess whether SLPI crosses the blood brain barrier, adult 129SI/SV1MJ mice received intraperitoneal injections of 100 μg fSLPI in sterile PBS or unconjugated fluorescein (500 μl total volume). Mice were sacrificed by transcardial perfusion with 4% paraformaldehyde after 4 and 8 hours. The brains and cervical spinal cords were dissected out and prepared for sectioning as described. Tissues were sectioned coronally at 30 μm and slides were coverslipped as described. […] This may be an inherent property of SLPI or may be secondary to its observed efficient cellular internalization which may in turn prevent SLPI from ever reaching the CNS in high enough concentrations to be detected.
# To assess whether SLPI11-25 crosses the blood brain barrier, 129SI/SV1MJ mice received intraperitoneal injections of 100 μg SLPI11-25 or penetratin in sterile PBS ([…]). Mice were sacrificed after 1 and 4 hours, and the brains and cervical spinal cords were prepared for sectioning as described. Tissues were sectioned coronally at 30 μm and slides were coverslipped as described. […] This may be an inherent property of SLPI-derived PTDs, or may be secondary to its observed efficient cellular internalization, which may in turn prevent the SLPI-derived PTD from ever reaching the CNS in high enough concentrations to be detected.
# [4] = tested on: Chinese hamster ovary (CHO) cells; assay: Presence in the underlying CHO cell monolayer at 4° C.; format: cell-based; details: 10 μg/ml, 4 hours
# Method: (§1) For these experiments, monolayers of Chinese hamster ovary (CHO) cells were prepared by plating 75,000 cells into the wells of 8-well chamber slides coated with 20 μg/ml PDL and 10 μg/ml fibronectin (Mukhopadhyay et al., 1994, supra). These cells were incubated overnight at 37° C. to allow the monolayers to form. P6 DRG neurons were then isolated, plated on the monolayers in SATO culture medium, and incubated for an additional 16 hours. This approach was used because of the harsh conditions used in these experiments. Neurons would likely fail to adhere to the slides if plated directly onto PDL and incubated at 4° C., and so, we enhanced adhesion by plating the neurons on CHO cell monolayers and allowing them to extend neurites. Cold SATO culture medium was supplemented with 10 μg/ml penetratin, fSLPI, or SLPI11-25 and added to the wells containing the neurons. The slides were then covered and incubated at 4° C. for 4 hours. Cells were then fixed and immunostained for βIII tubulin as described.
# DRG neurons [5] = assay: Internalization at 4° C. by DRG neurons plated on CHO cell monolayers; format: cell-based; details: P6 DRG neurons, 10 μg/ml, 4 hours
# Method: as §1
# DRG neurons [6] = assay: Internalization of fluorescein-labeled SLPI/peptides by DRG neurons at 37° C. (fluorescence microscopy); format: cell-based; details: for internalization / presence in nuclei of DRG neurons: P6 DRG neurons, 5 μg/ml, 15 minutes
# Method: To visualize internalization of SLPI in living cells, SLPI was labeled with fluorescein using a Fluorescein-EX protein labeling kit (Molecular Probes). The labeling reaction was performed following the protocol provided by the manufacturer. P5 DRG neurons were isolated (Mukhopadhyay et al., 1994; DeBellard et al., 1996; Cai et al., 1999; supra) and treated with either 10 μg/ml of fluorescein-labeled SLPI (fSLPI) or unconjugated fluorescein in SATO culture medium. Cells were then plated in 8 well chamber slides coated with 100 μg/ml poly-D-lysine (PDL) and incubated for 1 hour at 37° C. Cells were then fixed with 4% paraformaldehyde and immunostained using a monoclonal antibody to the neuronal marker βIII tubulin (1:1000 dilution, Covance). After an overnight incubation at 4° C., the cells were rinse and incubated successively with biotinylated anti-mouse antibody (1:500 dilution, Amersham) and Texas Red-conjugated streptavidin (1:300 dilution, Amersham). Slides were then coverslipped and viewed using an upright fluorescence microscope.
# To further characterize SLPI internalization into living cells, P5 DRG neurons in SATO culture medium were treated with unconjugated fluorescein, 1 μg/ml fSLPI, or 10 μg/ml fSLPI and plated onto PDL-coated slides for 5 minutes at 37° C. Cells were then fixed and immunostained for βIII tubulin as described.
# The transduction characteristics of a SLPI-derived PTD comprising amino acids 11-25 of human SLPI (SLPI11-25) were compared to those of the SLPI protein. SLPI11-25 and penetratin were custom synthesized and labeled with fluorescein at the C-terminus by Invitrogen. P6 DRG neurons were isolated and treated with unconjugated fluorescein, 5 μg/ml fSLPI, 5 μg/ml SLPI11-25, or 5 μg/ml penetratin in SATO culture medium. Cells were plated onto PDL-coated slides and incubated for 15 minutes at 37° C. Cells were then fixed and immunostained for βIII tubulin as described.
# cerebellar neurons = assay: Western blot of cytoplasmic and nuclear fractions of treated cerebellar neurons; format: cell-based, rats; details: 0, 1, 5, and 10 μg/ml, 1 hour, 37° C.
# Method: FIG. 1: Western blot analysis of cytoplasmic and nuclear fractions from cerebellar neurons treated with 0, 1, 5, and 10 μg/ml SLPI for 1 hour. Higher levels of SLPI are observed in both cytoplasmic and nuclear fractions with increasing concentrations of SLPI. Phospho-CREB is used as a nuclear marker and actin is used as a loading control. See Example 1.
# To characterize the transduction abilities of the SLPI protein, cerebellar neurons were isolated from postnatal day 6 (P6) rats (Mukhopadhyay et al., Neuron 13:757-767 (1994); DeBellard et al., Mol. Cell. Neurosci. 7:89-101 (1996); Cai et al., Neuron 22:89-101 (1999)) and treated with 0, 1, 5, and 10 μg/ml recombinant human SLPI (R&D Systems) in SATO culture medium (Doherty et al., Neuron 5:209-219 (1990); Nature 343:464-466 (1990)). Cells were incubated at 37° C. for 1 hour, and cytoplasmic and nuclear fractions were prepared using NE-PER cytoplasmic and nuclear extraction reagents (Pierce). Protein samples were subjected to SDS-PAGE using 15% SDS polyacrylamide gels and transferred to nitrocellulose. SLPI was detected using a polyclonal antibody to recombinant human SLPI (R&D Systems). […] The nuclear localization of SLPI was then confirmed by reprobing the membrane for a well-known nuclear marker: phosphorylated cyclic AMP response element binding protein (pCREB; Cell Signaling). […]
molecule,measurement,setting,value
O=C1OC2(c3ccc(O)cc3Oc3cc(O)ccc32)c2ccccc21 [fluorescein],presence in the retinal ganglion cell layer of the retina,[1],no signal was observed
same,presence in the retinal ganglion cell layer of the retina,[2],no signal is observed
"SLPI11-25: SLPI-derived PTD, amino acids 11-25 of human SLPI (PPKKSAQCLRYKKPE, SEQ ID NO: 2), labeled with fluorescein at the C-terminus (PPKKSAQCLRYKKPE-fluorescein; listed as Homo sapiens)",observed in the brain and spinal cord,[3]; 1 and 4 hours,No SLPI11-25 was observed in the brain and spinal cord at either time point
same,present in the underlying CHO cell monolayer,[4],not
same,nuclear localization at the restrictive temperature,DRG neurons [5],still occurred at the restrictive temperature
same,internalization / presence in nuclei of DRG neurons,DRG neurons [6],present in the nuclei of DRG neurons
B1,SLPI in cytoplasmic and nuclear fractions,cerebellar neurons,present in increasing amounts in both the cytoplasmic and nuclear fractions
B2,observed in the brain and spinal cord,[3]; 4 and 8 hours,No fSLPI was observed in the brain and spinal cord at either time point
same,present in the underlying CHO cell monolayer,[4],not
same,nuclear localization at the restrictive temperature,DRG neurons [5],still occurred at the restrictive temperature
same,internalization into nuclei,"DRG neurons [6]; P5 DRG neurons, 1 μg/ml or 10 μg/ml, 5 minutes",internalized into nuclei within 5 minutes in a dose-dependent manner
same,internalization / presence in nuclei of neurons,"DRG neurons [6]; P5 DRG neurons, 10 μg/ml, 1 hour",clearly present in the nuclei of neurons
same,internalization / presence in nuclei of DRG neurons,DRG neurons [6],present in the nuclei of DRG neurons
